From the DeepSol protein solubility set

Experiment: soluble on expression in E. coli; label from the status in PepcDB or PDB records

With “MAPGQLALFSVSDKTGLVEFARNLTALGLNLVASGGTAKALRDAGLAVRDVSELTGFPEMLGGRVKTLHPAVHAGILARNIPEDNADMARLDFNLIRVVACNLYPFVKTVASPGVTVEEAVEQIDIGGVTLLRAAAKNHARVTVVCEPEDYVVVSTEMQSSESKDTSLETRRQLALKAFTHTAQYDEAISDYFRKQYSKGVSQMPLRYGMNPHQTPAQLYTLQPKLPITVLNGAPGFINLCDALNAWQLVKELKEALGIPAAASFKHVSPAGAAVGIPLSEDEAKVCMVYDLYKTLTPISAAYARARGADRMSSFGDFVALSDVCDVPTAKIISREVSDGIIAPGYEEEALTILSKKKNGNYCVLQMDQSYKPDENEVRTLFGLHLSQKRNNGVVDKSLFSNVVTKNKDLPESALRDLIVATIAVKYTQSNSVCYAKNGQVIGIGAGQQSRIHCTRLAGDKANYWWLRHHPQVLSMKFKTGVKRAEISNAIDQYVTGTIGEDEDLIKWKALFEEVPELLTEAEKKEWVEKLTEVSISSDAFFPFRDNVDRAKRSGVAYIAAPSGSAADKVVIEACDELGIILAHTNLRLFHH” as the sequence, how does the “soluble on expression in E. coli” value read?
Its value is “soluble”.

Which “soluble on expression in E. coli” value does the source give for “MGSDKIHHHHHHMNRRDLLVGLGAATLVPKASWADAHNPAFLSAAQAPDGNYHLCGLDPRGDVVFSIPLPGRGHAAAAHPTRPEAVAFARRPGRFALILDCVTGQETARLLPPPNRHFYGHGTFSSDGDVLFTTENDLTTLEGRIGLWDAAHGYVRLGDVPSGGIGPHDIARLPGTETLVIANGGIATHPDSGRTPLNPATMRSNLAYMRTDGTLLERVELDVTLRQNSIRHLSIRDDGLVSAGMQWNGAEGEHPPLTLLHRIGAAPRLLAAPTQTHRQLDGYVGSISFDQAGAHVAVTSPRGGTVHIFDVNSGAFAGLITAEDICGLALSHRAGLIATTGQGITGFVAQDDLTQMRHSSWRWDNHIVAI” here?
Its value is “not soluble”.

Which “soluble on expression in E. coli” value does the source give for “MSLTYDLIITDSHVMTPNGMVEKNIVIDSGKIKLITNDTPTCDKKIKGSGLVSIPGVIDPHVHYGVYSPIDQAAKTESHAAAIGGVTTMIRMFRLEGSYKDSLQKHLLASQNSHYIDYTIHASIFDTSQIDEMKYCTENQILSFKIYMNLGGDVGHVYMEMNPGEEKLISSHVNVTNELVEKIVKRAGELKCPVLVHAEDYQECACAMKTEQEKKHDGLNSWSESRSPDFEAKSIKTICEYGRKYDCVIYFVHIGSKLALEQIQIEKNNGTKIFVETCPHYLTLSHETQDGYLAKVMPPIRTKNDVEYVWESLQKNHINTIGTDHVANQLKLKLGGDDVWGALAGFPGIGTSLPILLSEGINKNRITLDQLVNLTSANTSKIFGLSDKGNISTGYEGHHHHHH” here?
Its value is “soluble”.

Which “soluble on expression in E. coli” value does the source give for “MGSDKIHHHHHHMAELIFSRETDCRYCYKCLRNCPVKAISFKSGKSTVLEEECVFCGSCLDICPQNARSYRKDVERFLSLSEPFLVSIAPSFFAYFENPLKVIGVLKEMGAVVVQETAVGAEIVSRRYEEVFEKHSGPFITTACPVVVNLAEKHFPNVLKYFAPVDSPLMTHAKFLKTRYGDFPIVFVGPCIAKKSESDLVDVALTFEELEEILEEREGKEALPDGPYPDRARFYPTTDGIGYTVSVPWEKKLVVEGVENLMRVFSRIDEYKSVFIEASACYGSCLNGPVMKKKSNGKERLLEWQKKLPKEPK” here?
The value was “not soluble”.

Which “soluble on expression in E. coli” value does the source give for “GKNYVRSELKRLNHLCRDFRRDEVHAMDKLLFDQLCQIQLLLGTQAEVHIVSGYRSPATNKQLRSKSKGVAKKSYHMSGQAIDFRLDGVSLKKIREAAISLQAGGVGYYPKSQFIHIDTGPVRQWVGA” here?
Its value is “not soluble”.

Which “soluble on expression in E. coli” value does the source give for “MAKQIKGIAASDGVAIAKAYLLVEPDLSFDNESVTDTDAEVAKFNGALNKSKVELTKIRNNAEKQLGADKAAIFDAHLLVLEDPELIQPIEDKIKNESVNAAQALTDVSNQFITIFESMDNEYMAERAADIRDVSKRVLAHILGVELPNPSIVDESVVIIGNDLTPSDTAQLNKEYVQGFVTNIGGRTSHSAIMSRSLEIPAVVGTKSITEEVEAGDTIVVDGMTGDVLINPSDEVIAEYQEKRENFFKDKQELQKLRDAESVTADGHHVELAANIGTPNDLPGVIENGAEGIGLYRTEFLYMGRDQMPTEEEQFEAYKAVLEAMKGKRVVVRTLDIGGDKELPYLDLPEEMNPFLGYRAIRLCLDQPEIFRPQLRALLRASVFGKLNIMFPMVATIQEFRDAKALLEEERANLKNEGYEVADDIELGIMVEIPSTAALADIFAKEVDFFSIGTNDLIQYTMAADRMSERVSYLYQPYNPAILRLVKQVIEASHAEGKWTGMCGEMAGDQTAIPLLLGLGLDEFSMSATSILKARRLIRSLNESEMKELSERAVQCATSEEVVDLVEEYTKNA” here?
The value was “soluble”.

With “QVQLLESGAVLARPGTSVKISCKASGFNIKDYYMHWVKQRPGQGLEWIGGNDPANGHSMYDPKFQGRVTITADTSTSTVFMELSSLRSEDTAVYYCARDSGYAMDYWGQGTLVTVSSASTKGPSVFPLAPCSRSTSESTAALGCLVKDYFPEPVTVSWNSGALTSGVHTFPAVLQSSGLYSLSSVVTVPSSSLGTKTYTCNVDHKPSNTKVDKRVES” as the sequence, how does the “soluble on expression in E. coli” value read?
The value was “soluble”.

Which “soluble on expression in E. coli” value does the source give for “MGSDKIHHHHHHMKRISQQELESYLWGAAVLLRGLIDAGDYKQFIFPLLFYKRVSDVWDEEYQAALANSGGDLSYAQFAENHRFQIPAGAHWNDVRQTPKNVGAAIQKAMRAIESANPDLLDGIFGDAPWTNRERLPDETLKNLIEHFSTQTLSVANVPEDELGNAYEYLIKKFADDSGHTAAEFYTNRTVVHLMTQLLAPQAGESIYDPTCGTGGMLISALDEVKRAGGEYRTLKLYGQERNLITSSIARMNLFLHGVEDFEIIRGDTLAEPKHIEGDRLRQFDVILANPPYSIKQWNREAWSSDKWGRNSLGTPPQGRADYAFQQHILTSLTAKGRCAVLWPHGVLFRNEEQSMRAKMVEQDWVEAVIGLGPNLFYNSPMESCIVICNRKKAAARKGKVIFIDAVNEVARERAQSFLKPEHQQRILTAYKTFADVPGFAKVATLAEIGANAGNLSIPLYVKRIAAAIATDSNDDAVSLRSAWDQWQADGRAFWQQMDALVETLDGLVAQEAADA” here?
The value was “not soluble”.

With “MKWKEQAIILGTRQYGETSVILEVMTRQHGRYMGVVKGGRSRRMAVLLQPGNFVEAEWWARLDEHLGLFRLEALDLHAARLILFPEALYALQLIVFHLHLLPERDPHPILYDILHLFMQSFDEPFINAELLVRFEMRFLEELGFGLDLSRCAATGRLEKLCYVSPKSGRAVCEEAGHPWREKLLNLPQFLVQRTVRPVDFSDIKNGFILTGFFLMRHVWEPRNIKQPSVRISLIQLFEQRFRMQASFVDLKTINRM” as the sequence, how does the “soluble on expression in E. coli” value read?
Its value is “not soluble”.

With “MSLASIRDIARQAEVSPGTVSRVLNNDPTLSVAKETRTRIHQIAQALQYEKVTRKNKRIQIITYASREKEMSDPYYREIRLAIEAEVKRLNLSLKRTIRIDGQQDHIDLNKIENAGAIIVIGNFSVDALNKLKTHNANMVVINNPNTPKSIDAVYSDLDDAMTELLNRILDKGLTKIAYIGGHHTIRELNGITTTNAADVRYQAYQSWCEKHDVEEIVLLNGWGKTQGEDAVKVYLESDHAFPQVFIAGNDMIAIGILQQLQLNKKAIPEEVKLISFNDLEVIQYAVPSISSVHIPVDEFGRTAVRMAEERINNTRQIAIHVVVEAQLKARNTFKVEGHHHHHH” as the sequence, how does the “soluble on expression in E. coli” value read?
Its value is “soluble”.

With “MNASSAPQQQQQQQQPQQGQAPQQQQQGPPQHQYQQQRPFHGRVQNHMRGSGPFGNSNGYGRYTAPRGDQQHHDSTPLSSTNLYIRGLMPNTNDDLLREMCSKYGNIASTKAIMDKATNNCKGYGFVDFESPQAAAAAVDGLNTEGVQAQMAKLQQQEQDPTNLYIANLPLDFTEQMLETELNKFGMVISTRILRTPDNQSRGVGFARMDSKEKCEVIISALNGGRFDTMSKEGPALLIKQADTGRKSKHSMNNPEMLQRMQYPQVYQSYYGYHPAAVYQQHYDVNSLASQMGGMHVGGGNPQANGGGDMYGAHMYGQNAGGQGGQGVGQGGQGGNQQFYNPNNGRNKKYFQPMNPQ” as the sequence, how does the “soluble on expression in E. coli” value read?
The value was “not soluble”.

For “MESAKSIIGGHQNVILMRHGDRLDNFEPLWTSTAARPWDPPLAQDGKDRAFRTGQRIRSQLGVPIHRVFVSPFLRCIQTASEVVAALSAVDFDPIAMSSKDVLSIDNTKIKVAIEFGLSEIPHPIFIKSEVAPKDGKFDFKISDLEAMFPEGTVDSNVDMVYKEVPEWGESAQAFEDRYYKTVKILAEKYPSENLLLVTHWGAVSVAFYNYFKDATKYVVDYCGSVEMRRQILNGDGFGKFEVVTSHGVSYKYTKIPVHDHVVVSRQSPL”, which “soluble on expression in E. coli” value is on record?
Its value is “soluble”.

With “MLSLDSRKIIHHHHHHHHHDIKDGGATTGEWIGQTDHDDSDNHHQHHHHHPWCSDEVLALLRFRSTVENWFPEFTWEHTSRKLAEVGFKRSPQECKEKFEEEERRYFNSNNNNNNNTNDHQHIGNYNNKGNNYRIFSEVEEFYHHGHDNEHVSSEVGDNQNKRTNLVEGKGNVGETVQDLMAEDKLRDQDQGQVEEASMENQRNSIEVGKVGNVEDDAKSSSSSSLMMIMKEKKRKKRKKEKERFGVLKGFCEGLVRNMIAQQEEMHKKLLEDMVKKEEEKIAREEAWKKQEIERVNKEVEIRAQEQAMASDRNTNIIKFISKFTDHDLDVVQNPTSPSQDSSSLALRKTQGRRKFQTSSSLLPQTLTPHNLLTIDKSLEPFSTKTLKPKNQNPKPPKSDDKSDLGKRWPKDEVLALINIRRSISNMNDDDHKDENSLSTSSKAVPLWERISKKMLEIGYKRSAKRCKEKWENINKYFRKTKDVNKKRPLDSRTCPYFHQLTALYSQPPTGTTATTATTATSARDLDTRPEENRVGSQDPDISVPMHVDGDGAGDKSNVQFSGFDLEF” as the sequence, how does the “soluble on expression in E. coli” value read?
Its value is “soluble”.

For “MGRARDAILDALENLTAEELKKFKLQAATHQGSGAAPAGIQAPPQSAAKPGLHFIDQHRAALIARVTNVEWLLDALYGKVLTDEQYQAVRAEPTNPSKMRKLFSFTPAWNWTCKDLLLQALRESQSYLVEDLERS”, which “soluble on expression in E. coli” value is on record?
The value was “soluble”.

For “MGSDKIHHHHHHMLTVLLLAGAEKLINMAIASDEITKAGLVPLAGKVLRLNMGTPDVNLDVLFTQERLRFEPVTTESVFEQSGTMNERQKASLERGRLGHSRPDCIITVANPAQLLNLMRGTEGNLPIEGDYKVLMQLNQLVAGFDPDVAGQLEPFIGKPMASQLHLLISQLKGSWRHSAKRAFNDVSDWANDVAGNVTPDTSEAAEVNVLKQQLLKLRADVEREEARLAAIKDEQARLTNSR”, which “soluble on expression in E. coli” value is on record?
The value was “not soluble”.

With “ALQAAADIDTVVFDLNGTLTQGKMVVKSLHITDKKYLRPIALLESQSDHPVAKIIKSYMEQQDTASTEPLEITSIDKSHHSGMKGIINGEVFIIGNKDMLAANGITSIDKPYDNPEKGSVYIVRGTTVIGQIALIDPLREDAIATVKQLKRLGKSVHICTGADQATAEKYAALLGIPKDNICANTVGAVTKKGEVSKTSYIQQLKQKGFKVAMVGDAANDATAIAYSDIGIAVKSSIGDSITEQHAGIVVQQGLLFPIATAFDVAQKTKQNIFQNLFVSLSYNSIIT” as the sequence, how does the “soluble on expression in E. coli” value read?
The value was “not soluble”.

For “MVVPGKNSTISPDYFTASQTSPLDMMKFPSPGSSKRYDNGGGIGLGIVAALEKSSIGINPVCHTGAGSKGFDLARYSKRFQFAAGIDLSDSEEYTCVTTRDGLTKVYYKEEEFEFGHNLLNGDQRWRKPIEIAEESPAKERRVLRDCPDFLTSCCLCKKKLQGKDIYMYKGDEGFCSKECRSLKIMEDSLKEQHKLTSVEVLTGEEIASPGIFLI”, which “soluble on expression in E. coli” value is on record?
The value was “soluble”.

For “MAHHHHHHMSLAREKYLKRKRELLENINLIDIGEKISNTGKNEGNSKSDNIKKESRSRDFIKNDNRTRESFKKNDRGEYIDNDRKHLKSNNYNMLSSYNNKDIKNENRDLRKSPYDHRKLNNKNEQDILSNKTKRSSTNLQYNNDYAFVNKENNVLINNSSKMVNSTNNINEYLKDLNNIDINDSLILLFYVCKLLLDMCSKVNMNQSSMNTSVTSVEMLRDMKSKNRKNIKLFKINILNNILIYLSDENVNTLTQGNPNYKDNNFEKRHEEIRIDEKCIDIEHVGINIVIKVIYINNIKKLIFKYLYLINNNFKHDGVGNINMYDGRLNKNEEQNYFTTPLMEHKNINFMNN”, which “soluble on expression in E. coli” value is on record?
The value was “not soluble”.

With “GTVEGVVGVTREVTEQRKHEMEIARQRSILKAQQEAVIDGILVVDEDDTIVSYNERFVDMWDIPRDIVERGDEEIALEWAMEQVAEPEAFRVDVEALYEDPETTARDELELADGRVFDRYTAPVVAEDGTRFGRLWAFRD” as the sequence, how does the “soluble on expression in E. coli” value read?
Its value is “not soluble”.
